In publication PMC3860269:

Molecular target: in vitro assembled HIV-1 CA–NC complexes bearing the capsid change N74D (HIV-1)
Experiment: co-sedimentation

**Q.** For “GFP-Nup98 (from UniProt P52948 1-880) (natural protein)”, which fold decrease of binding against wild type CA–NC complexes is on record?
**A.** 2 fold
